One molecule from US12534533B2, “Anti-chemokine like receptor 1 humanized antibodies and their therapeutic applications” (OSE IMMUNOTHERAPEUTICS, priority 2019, dated 2026) can be followed below.

Entries after “also recorded” stand apart in the source; their conditions may differ.

Experiment [1] has as its system PMN from healthy volunteers. In words: Percentage of dead PMN (mortality of neutrophils) on coated antibodies. The note with it: coated Ab at 10 μg/mL, 24 h; FIG. 26, FIG. 36. Format: cell-based, human. As for the experimental part:
[…] Mortality of PMN was analyzed by incubating PMN with specific markers of the mortality and viability and then counted by picture analysis.
FIG. 36—Increase of dead PMN neutrophils in vitro with anti-ChemR23 antibodies coated. PMN from healthy volunteers were incubated in culture medium with coated HEF-LDT52S, HEF-LEF and HDLD antibody variants at 10 μg/mL for 24 h and stained either with a dead/viability kit (LIVE/DEAD (Invitrogen)). The percentages of positive cells were obtained by analyzing the pictures with Fiji software. Isotype control was added as control.
PMN from healthy volunteers were incubated in culture medium with coated Ab at 10 μg/mL for 24 h or 5 h and stained either with a dead/viability kit (LIVE/DEAD (Invitrogen)) or a specific marker of reactive oxygen species (ROS) respectively. The percentages of positive cells were obtained by analyzing the pictures with ImageJ software.
PMN from healthy volunteers were incubated in culture medium with coated HEF-LDT52S, HEF-LEF and HDLD antibody variants at 10 μg/mL for 24 h and stained either with a dead/viability kit (LIVE/DEAD (Invitrogen)). The percentages of positive cells were obtained by analyzing the pictures with Fiji software. Isotype control was added as control.

In experiment [2] the test system is colitis induced by DSS. In words: acute inflammatory colitis model induced by DSS. Format: in vivo, mice. As for the experimental part:
FIG. 2. Effect of an anti-CMKLR1 antibody on a mice acute inflammatory colitis model induced by DSS. Mice were injected after 6 days of DSS induction with isotype control hIgG1 (10 μg per mouse) (x), RvE1 (1 μg per mouse) daily (●), or 2G1 antibody (10 μg per mouse) three times (□) for 5 days. Wild type mice, not treated, are represented by an ▾. A. Animal weight loss. B. Animal stool score C. Colon length. D. Resolution index.
Colitis was induced in 8-10 weeks-old-C57Bl/6 male mice by adding 2% (wt/vol) of DSS to the sterile drinking ad libitum water for 6 days. Treatments were injected intra-peritoneally: Isotype control hIgG1 (10 μg per mouse), RvE1 (1 μg per mouse) daily, or 2G1 antibody (10 μg per mouse) three times for 5 days. Colitis follow-up consisting of body weight and stool score (0: normal stool; 4: blood in stool) parameters were performed daily. When mice were euthanized, colon length representing the pathology severity was measured. Resolution index was determined in the different conditions as described in Bannenberg et al., 2005.

For experiment [3], the system named is Caspase-3 in PMN from healthy volunteers. In words: Caspase-3 expression in PMN by Western Blot. Particulars: coated Ab at 10 μg/mL; 4 h, 6 h, 11 h; FIG. 26B. Format: cell-based, human. As to the method: Neutrophils were isolated from blood of healthy volunteers and cultured for 24 h (Mortality analysis), or 4 h, 6 h, 11 h (Caspase-3 assay), or 5 h (ROS assay) on coated Iso ctrl (cross), chimeric anti-ChemR23 2G1 (square) or different humanized versions of the 2G1 (diamonds). Mortality of PMN was analyzed by incubating PMN with specific markers of the mortality and viability and then counted by picture analysis.
PMN from healthy volunteers were incubated in culture medium with coated Ab at 10 μg/mL for different times and collected for Caspase-3 staining analyzed by Western Blot. The intensity of Capase-3 expression was calculated on WB.
In general terms: Immunoblotting shows a protein as a band on a membrane.

Experiment [4] has as its system CT26 cells. In words: CT26 colon carcinoma model. Type of experiment: in vivo, mice. The note with it: 20 μg/injection i.p. for 3 weeks from d4; FIG. 9A-C. As to the method: FIG. 9. Effect of an anti-CMKLR1 antibody on 2 different colon carcinoma mice models. Two mice models were studied, and animals received isotype control antibody (3G8) (x) or anti-CMKLR1 (2G1) (□) at 20 μg/injection intraperitoneally for 3 weeks. A-C. Results in the CT26 colon carcinoma model comparing single treatment with p84 (A) and 2G1 (B) with combined therapy with both antibodies (C). D: Results in the MC38 colon carcinoma model.
8-week old C57bl/6J male mice were anesthetized with 3% of isoflurane. Mice were shaved on the flank and MC38 cells (0.5·10≢cells/mouse) cell lines were injected subcutaneously with an insulinic syringe (30 Gauges) in 50 μL of PBS. Another model was used, in which 8-week old Balb/c male mice were anesthetized with 3% of isoflurane. Mice were shaved on the flank and CT26 cells (1.10≢cells/mouse) were injected subcutaneously with an insulinic syringe (30 Gauges) in 50 μL of PBS.
The agonistic anti-CMKLR1 antibody (2G1) or an anti-SIRPa antibody (p84-anti-mouse SIRPa from Merck Millipore) (SIRPa is a new checkpoint inhibitor) were injected once a week (20 μg/injection) intraperitoneally for 3 weeks starting at d4 after tumor inoculation alone or combined.

Experiment [5] has as its system PMN from healthy volunteers or ANCA patients. Briefly: Neutrophils transmigration through endothelial monolayer (HDMEC transwell). Format: cell-based, human. As to the method:
Endothelial cells were coated and +/−activated with 100 U/mL of TNFa overnight. Then PMN were added with or without TNFa at 100 U/mL and Ab for two hours. The transmigrated PMN were collected and analyzed by flow cytometry.
Human endothelial cells (HDMEC) were incubated for 24 h in the transwell coated with gelatin and activated overnight with TNF-alpha at 100 U/mL or without inflammatory conditions. Then, PMN from healthy volunteers or ANCA patients were incubated in transwell containing the monolayer of HDMEC for 4 hours. Antibodies (Iso Ctrl and 2G1) were added at 10 μg/mL+/−TNF-alpha at 100 U/mL during the 4 hours of the transmigration assay. The lower transmigrated part of the transwell was collected and the transmigrated PMN were counted by flow cytometry using counting beads.

B1: 2G1: parental chimeric anti-CMKLR1 antibody: heavy chain variable domain SEQ ID No. 37, light chain variable domain SEQ ID No. 49 (antibody, V domains shown)
VH: EVQLVASGGGLVQPGGSLKLSCAASGFTFSSYGMSWVRQTPDRRLELVATINRYGGSTYYPDSVKGRFTISRDNAKNTLYLQMSSLKSEDTAMYYCPRLIYYGNEGDSWGQGTTLTVSS
VL: QIVLTQSPAIMSASPGEKVTMTCSASSSVSFMHWYQQKSGTSPKRWIYDTTKLTSGVPARFSGSGSGTFYSLTISSMEAEDAATYYCQQWNSKPPLTFGPGTKLELKR
As for B1, the “mortality of PMN (percentage of dead PMN)” value in experiment [1] is listed as “increase the mortality of PMN; also recorded: accelerate the death of PMN”. In experiment [2] (0: normal stool, 4: blood in stool, FIG. 2B), the stool score entry is “significantly better”. For the same molecule, the Animal weight loss entry in experiment [2] (10 μg per mouse i.p. three times for 5 days, vs control antibody or RvE1, FIG. 2A) is listed as “lost significantly less weight”. Moreover, the caspase-3 cleavage entry in experiment [3] is listed as “increases caspase-3 cleavage”. For the same molecule, in experiment [4], the tumor development entry is “did not demonstrate a clinical effect on the tumor development”. Moreover, in experiment [5] (10 μg/mL, compared to control compounds, FIG. 28A), the “transmigration capability of neutrophils” value was “lower transmigration capability”. The “PMN transmigration through endothelial monolayer under inflammatory condition” value in experiment [5] (PMN and endothelial cells activated with TNFa, healthy volunteers and patients, FIG. 28B) is recorded as “avoids PMN transmigration”.
